The source of these data is US20210095265A1 (WISCONSIN ALUMNI RESEARCH FOUNDATION, published 2021).

Series [1] concerns the molecule itself. Description: X-ray crystal structures (pdb 5uuo, 5uun); two copies of the protein per asymmetric unit. The source says:
Diffraction data were obtained at the GM/CA beam-line at Argonne National Laboratory with an Eiger 16M detector (Casanas et al. 2016). Data were collected on the ammonium acetate and ammonium sulfate crystal forms using 1.033 Å (for 1.45 Å resolution) or 0.7749 Å (for 1.25 Å resolution) X-rays, respectively. Diffraction data were reduced using XDS (Kabsch 2010). Both crystals belonged to space group P2₁2₁2₁ with a predicted solvent content of 60%. The structure was solved by molecular replacement with Phaser (McCoy et al. 2007) in the Phenix suite (Adams et al. 2010), using a search model based on PDB ID 3C8E:A (ecYghU (Stourman et al. 2011)) modified with phenix.sculptor (Bunkóczi et al. 2011), based on primary sequence alignment. […] Phenix.refine (Afonine et al. 2012) and COOT (Emsley et al. 2004) were alternatively used to refine the structure and fit the model to electron density maps.

In series [2] the target is T1, Saro_2873 S15A (subunit of BaeA variants 3:S15A and 2:S14A/3:S15A) (Novosphingobium aromaticivorans).
T1 chain: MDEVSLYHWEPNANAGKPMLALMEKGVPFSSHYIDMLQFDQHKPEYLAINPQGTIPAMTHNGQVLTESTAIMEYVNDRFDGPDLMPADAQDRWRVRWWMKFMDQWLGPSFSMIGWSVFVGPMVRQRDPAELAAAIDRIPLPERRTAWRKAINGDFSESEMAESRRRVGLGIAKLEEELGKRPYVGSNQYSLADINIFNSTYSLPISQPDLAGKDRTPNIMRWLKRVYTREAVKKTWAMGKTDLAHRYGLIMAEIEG
Description: gel permeation chromatography.

Series [3] concerns the target T2, Saro_2873 N14A (subunit of BaeA variant 3:N14A) (Novosphingobium aromaticivorans).
T2 construct: This subunit is untagged; the tag is on Saro_2872
T2 chain: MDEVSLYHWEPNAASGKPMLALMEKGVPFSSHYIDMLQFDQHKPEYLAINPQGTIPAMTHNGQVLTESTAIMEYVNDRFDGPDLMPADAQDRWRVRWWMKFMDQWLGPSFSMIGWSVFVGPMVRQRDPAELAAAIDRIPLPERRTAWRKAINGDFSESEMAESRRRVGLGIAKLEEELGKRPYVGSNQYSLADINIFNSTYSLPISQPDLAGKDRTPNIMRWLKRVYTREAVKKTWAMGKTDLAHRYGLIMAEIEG
Kind of series: gel permeation chromatography.

For series [4], the target named is T3, Saro_2873 polypeptide made by cell-free synthesis in its native form.
T3 chain: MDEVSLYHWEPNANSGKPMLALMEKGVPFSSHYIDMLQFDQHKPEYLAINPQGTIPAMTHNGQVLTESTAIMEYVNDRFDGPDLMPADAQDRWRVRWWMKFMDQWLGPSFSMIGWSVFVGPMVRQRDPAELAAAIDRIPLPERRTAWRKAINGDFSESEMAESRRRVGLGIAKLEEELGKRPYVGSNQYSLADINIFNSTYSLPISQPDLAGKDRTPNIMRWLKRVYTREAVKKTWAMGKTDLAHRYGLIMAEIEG

Series [5] addresses T4, Saro_2873 polypeptide from Novosphingobium aromaticivorans (subunit of BaeA), co-expressed with Saro_2872 in … (Novosphingobium aromaticivorans).
T4 construct: Co-expressed with Saro_2872; also called Saro_2873 subunit; second polypeptide of BaeA
T4 chain: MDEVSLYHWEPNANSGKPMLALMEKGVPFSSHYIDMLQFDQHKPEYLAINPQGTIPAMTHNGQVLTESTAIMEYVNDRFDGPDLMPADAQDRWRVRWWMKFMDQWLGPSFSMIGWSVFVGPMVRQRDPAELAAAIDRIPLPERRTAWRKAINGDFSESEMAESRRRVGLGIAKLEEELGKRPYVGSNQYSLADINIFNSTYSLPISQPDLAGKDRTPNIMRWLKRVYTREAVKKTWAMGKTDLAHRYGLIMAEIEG
Description: gel permeation chromatography.

B1: recombinant NaGSTNu (Nu-class glutathione-S-transferase of Novosphingobium aromaticivorans DSM 12444, Saro_2595), one subunit (enzyme)
chain: SAIAGMSSEYVPPKVWKWDKANGGAFASVNRPVAGPTSERELPVGKHPFQVYSLGTPNGQKATIMLEELLQLGFSEAEYDAWLIKIFEGDQFTSGFVDINPNSKIPAMVDRSGPEPFRVFESGAILMHLAEKFGVFLPTSGPARAECLSWLFWQVGSAPFIGGGFGHFYNYAPIKIEYAIDRYAMETKRLFDVANRRLAESRYLAGDEYTIADLATYTWFGNIYRGEAYGEAATFLSMHEYEHVGRWVGEIDARPGVLRGRLVNSSKGLAERHDASDFDALPPESLQAIVKGF
notes: also called Saro_2595 product; pdb 5uuo
With B1, the binding result in series [1] is listed as “binds”.

B2: Saro_2872 polypeptide from Novosphingobium aromaticivorans (subunit of BaeA), co-expressed with Saro_2873 in E. coli (enzyme)
chain: MSALLYHGEPNGASLTVLAALAETGLDIECRRIDLLAGERHSLPGIVDPVALDLSIEGEGPVLVIDGEAMTESVFLAQYLDEAAGGVGLQPTDAYARWEMMMWCRQITERLSPAAALLGNLATSQSAIAAIPAEDFAILAARIVSDDLRERWQALNDDAVNAAQVADSETKVAAAVDRCEKQLGDGREWLMGTFSIADLVTYSWLAGMEPLRPAAFADAPLVKAWLARTAARPCVQAALARATISEPLRAWAPGPEINRWG
notes: Co-expressed with Saro_2873 from one pVP302K vector; In the H2872 construct Saro_2872 lacks its native start codon; also called Saro_2872 subunit; first polypeptide of BaeA
Take B2: the binding result in series [2] and in series [3] was “binds” in each case. Moreover, in series [4], the “conversion of racemic MPHPV into GS-HPV and guaiacol (HPLC)” value is “half of the MPHPV was converted into GS-HPV and guaiacol”.

B3: Saro_2872 S14A (subunit of BaeA variants 2:S14A and 2:S14A/3:S15A) (enzyme)
chain: MSALLYHGEPNGAALTVLAALAETGLDIECRRIDLLAGERHSLPGIVDPVALDLSIEGEGPVLVIDGEAMTESVFLAQYLDEAAGGVGLQPTDAYARWEMMMWCRQITERLSPAAALLGNLATSQSAIAAIPAEDFAILAARIVSDDLRERWQALNDDAVNAAQVADSETKVAAAVDRCEKQLGDGREWLMGTFSIADLVTYSWLAGMEPLRPAAFADAPLVKAWLARTAARPCVQAALARATISEPLRAWAPGPEINRWG
notes: The N-terminal His8-tag and Tev site are on this subunit, and its native start codon is missing; also called H2872(S14A)
In the case of B3, the binding result in series [2] and in series [5] was “binds” each time.
